These results are taken from the supplement of paper PMC10567573.

The data set in a line: protein stability index of a GFP-peptide fusion (GPS, HEK-293T) (PSI 1-6); higher = more stable. Conditions: c terminus: a fixed tail appended.

± gives the standard deviation.
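Also: 24-mer peptide tiles fused after GFP, lentivirally expressed, FACS-sorted into six equal bins by GFP/DsRed ratio, decoded by Illumina sequencing, PSI is the read-weighted mean bin number.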

On to VLFNEKIREQIKKYRRHFLRFCHN [EIF5], for which the protein stability index was found to be 2.82 ± 0.29 (treatment: DMSO) and 3 ± 0.65 (treatment: MLN4924 1 uM, 8 h).

VLNTQGQKTSGQHMIQGAGSLEKA [DLC1]: the protein stability index (treatment: DMSO) came to 4.19 ± 0.42 and the protein stability index (treatment: MLN4924 1 uM, 8 h) was determined as 4.23 ± 0.33.

As for VLREDQIPRGFPTIDMGPQLKVVE [PTPRD], the protein stability index reads like this: (treatment: DMSO) 3.898 ± 0.018; (treatment: MLN4924 1 uM, 8 h) 3.34 ± 1.1.

On to VLRLCCKKLKIFAMPMQDIKMILK [PRAME], for which the protein stability index is, setting by setting: (treatment: DMSO) 2.81 ± 0.38; (treatment: MLN4924 1 uM, 8 h) 2.73 ± 0.52.

On to VMRTKSSEKAANDDHSVRVAREDV [CPXM2], for which the protein stability index is, setting by setting: (treatment: DMSO) 5.08 ± 0.54; (treatment: MLN4924 1 uM, 8 h) 5.16 ± 0.35.

As for VNNYTNSFGGEWSAPDTMKRYSMY [TRIM29], the protein stability index reads like this: (treatment: DMSO) 2.32 ± 0.19; (treatment: MLN4924 1 uM, 8 h) 2.62 ± 0.3.

As to VNSQFTAAVFKETFKSLSHIDPDV [ALG2], the protein stability index was 2.86 ± 0.47 (treatment: DMSO) and 3.05 ± 0.33 (treatment: MLN4924 1 uM, 8 h).

Turning to VPDVKEMEKSSFTEYIESPDVENE [TAF7L], the protein stability index by setting is: (treatment: DMSO) 5.59 ± 0.17; (treatment: MLN4924 1 uM, 8 h) 5.61 ± 0.23.

As for VPLQLSAHWQCGATLTQVSVEYGY [FCHO1], the protein stability index is 2.76 ± 0.76 (treatment: DMSO) and 2.6 ± 0.67 (treatment: MLN4924 1 uM, 8 h).

For VPQAPRRLRASFSRKPSLKGNRED [PLEKHN1], the protein stability index is, setting by setting: (treatment: DMSO) 4.71 ± 0.097; (treatment: MLN4924 1 uM, 8 h) 4.83 ± 0.13.

As for VQAIFSGDPEEIRMLIHKTEDVNT [ANKRD44], the protein stability index was 3.76 ± 0.11 (treatment: DMSO) and 3.58 ± 0.11 (treatment: MLN4924 1 uM, 8 h).

In the case of VRILLEHYYKENDPSVRLKIASLL [INTS4], the protein stability index by setting is: (treatment: DMSO) 2.09 ± 0.33; (treatment: MLN4924 1 uM, 8 h) 2.41 ± 0.4.

VRNLQSEVEGVKNIMTQNVERILA [VAMP8] gave a protein stability index (treatment: DMSO) of 3.01 ± 0.41 and a protein stability index (treatment: MLN4924 1 uM, 8 h) of 2.96 ± 0.51.

With VSAIIWEGNECKKMDMSVLEISGI [PHTF1], the protein stability index is, setting by setting: (treatment: DMSO) 2.11 ± 0.58; (treatment: MLN4924 1 uM, 8 h) 2.41 ± 0.83.

On to VSASRDKTLRVWDLKDDGNMMKVL [WSB1], for which the protein stability index worked out at 3.2 ± 0.09 (treatment: DMSO) and 3.35 ± 0.25 (treatment: MLN4924 1 uM, 8 h).

Turning to VSLLENNIYVHDLLTFQQITTVSK [VPS39], the protein stability index reads like this: (treatment: DMSO) 2.97 ± 0.35; (treatment: MLN4924 1 uM, 8 h) 2.41 ± 0.49.

In the case of VSSVFLLTLSIAFICCAQVKVSHL [PHTF1], the protein stability index reads like this: (treatment: DMSO) 3.57 ± 0.43; (treatment: MLN4924 1 uM, 8 h) 3.02 ± 0.58.

As for VSVIQSIPIFNETGRFSFTLPYPV [HACD3], the protein stability index reads like this: (treatment: DMSO) 2.91 ± 0.72; (treatment: MLN4924 1 uM, 8 h) 2.68 ± 0.76.

For the sequence VSYRGAWWYRNCHYANLNGLYGST [TNXB], the protein stability index worked out at 2.49 ± 0.46 (treatment: DMSO) and 2.26 ± 0.86 (treatment: MLN4924 1 uM, 8 h).

With VTKVTAVDADAGHNAWLSYSLLPQ [PCDHGC5], the protein stability index (treatment: DMSO) is 2.41 ± 0.39 and the protein stability index (treatment: MLN4924 1 uM, 8 h) turned out to be 2.29 ± 0.21.

Take VTSFPDADAFHHQVHDDDLLSSSE [EMD]: the protein stability index is 5.38 ± 0.33 (treatment: DMSO) and 5.33 ± 0.21 (treatment: MLN4924 1 uM, 8 h).

Consider VVCAFFKQGQCTKGDKCKFSHDLT [ZC3H15], for which the protein stability index is, setting by setting: (treatment: DMSO) 4.26 ± 0.64; (treatment: MLN4924 1 uM, 8 h) 4.1 ± 0.47.

Consider VVDKDKRNQCRYCRLKKCFRAGMK [HNF4A], for which the protein stability index runs as follows: (treatment: DMSO) 2.51 ± 0.065; (treatment: MLN4924 1 uM, 8 h) 2.75 ± 0.39.

Regarding VVWNAQTGEKLLELNGHTQKITAI [WDR41], the protein stability index amounted to 2.19 ± 0.2 (treatment: DMSO) and 2.31 ± 0.17 (treatment: MLN4924 1 uM, 8 h).

For VYASDKEWIRFDQSNVLCSIFGIC [PTGFR], the protein stability index (treatment: DMSO) was 2.56 ± 1.4 and the protein stability index (treatment: MLN4924 1 uM, 8 h) came out at 2.24 ± 0.78.

As to WAFSCGTWLPSRAEWLLAVRSIQP [AASDHPPT], the protein stability index by setting is: (treatment: DMSO) 2.65 ± 0.65; (treatment: MLN4924 1 uM, 8 h) 2.6 ± 0.64.

On to WDKEPWFWHDTLTEQLWRIFAGVH [TLE6], for which the protein stability index (treatment: DMSO) turned out to be 2.61 ± 0.82 and the protein stability index (treatment: MLN4924 1 uM, 8 h) was 2.22 ± 0.57.

Turning to WGGKAETERGLSRKHIIEGLKASL [KCNAB2], the protein stability index reads like this: (treatment: DMSO) 2.26 ± 0.29; (treatment: MLN4924 1 uM, 8 h) 2.02 ± 0.21.

WIQFNHPYTEKPRLWHTACASDEG [KLHDC2]: the protein stability index (treatment: DMSO) came to 2.28 ± 0.31 and the protein stability index (treatment: MLN4924 1 uM, 8 h) stood at 2.4 ± 0.13.

Regarding WKFPVPVLKTSRSTPLSPAYISLV [KLHL13], the protein stability index turned out to be 2.48 ± 0.42 (treatment: DMSO) and 2.26 ± 0.1 (treatment: MLN4924 1 uM, 8 h).

Turning to WKSHLRNVQRPLLQAPFLPPKPPP [RHOBTB2], the protein stability index was 3.03 ± 0.21 (treatment: DMSO) and 3.15 ± 0.32 (treatment: MLN4924 1 uM, 8 h).

For WLPLATLIDEKVLILHGGVSDITD [PPEF2], the protein stability index by setting is: (treatment: DMSO) 2.22 ± 0.64; (treatment: MLN4924 1 uM, 8 h) 2.4 ± 0.58.

With WLPYLYTLQGLYLVYHPVQLSTPH [DHCR7], the protein stability index turned out to be 3 ± 0.25 (treatment: DMSO) and 2.91 ± 0.34 (treatment: MLN4924 1 uM, 8 h).

For the sequence WRMLRPQLVNSSADNMLEYKSWLK [PPEF2], the protein stability index by setting is: (treatment: DMSO) 2.64 ± 0.49; (treatment: MLN4924 1 uM, 8 h) 2.7 ± 0.39.

Take YAELGQCSVFPATDAPEQFISQVT [PLK2]: the protein stability index came out at 2.67 ± 0.16 (treatment: DMSO) and 3.04 ± 0.41 (treatment: MLN4924 1 uM, 8 h).

For the sequence YAVENEHMNRLQSQRAMLLQGTES [VTI1B], the protein stability index is, setting by setting: (treatment: DMSO) 3.94 ± 0.31; (treatment: MLN4924 1 uM, 8 h) 4.1 ± 0.2.

As to YDFDTQYAFVGDYSGQITLLKLEQ [WDFY1], the protein stability index is, setting by setting: (treatment: DMSO) 2.19 ± 0.11; (treatment: MLN4924 1 uM, 8 h) 2.33 ± 0.27.

With YDPWNAPEGIQKVAKCLIGVNYPK [CRY1], the protein stability index worked out at 2.69 ± 0.13 (treatment: DMSO) and 2.87 ± 0.16 (treatment: MLN4924 1 uM, 8 h).

For YEIEIQAEDGGAYLATAKVLITVE [PCDHGA10], the protein stability index by setting is: (treatment: DMSO) 2.96 ± 0.39; (treatment: MLN4924 1 uM, 8 h) 2.89 ± 0.91.

Take YFFPVIFSKASDSLQLVFGIELME [MAGEA6]: the protein stability index was determined as 3 ± 0.29 (treatment: DMSO) and 3.02 ± 0.54 (treatment: MLN4924 1 uM, 8 h).

Consider YGALSSNLQPPASLQTGNHSNGPT [NOL4L], for which the protein stability index stood at 4.39 ± 0.22 (treatment: DMSO) and 4.44 ± 0.18 (treatment: MLN4924 1 uM, 8 h).

In the case of YGSGDTPGGPCDSTLGGDIRESDP [TBX6], the protein stability index stood at 5.25 ± 0.31 (treatment: DMSO) and 5.27 ± 0.61 (treatment: MLN4924 1 uM, 8 h).

For the sequence YLIMIFLGLYINFRHLYKQRRRRY [HACD3], the protein stability index reads like this: (treatment: DMSO) 2.55 ± 0.86; (treatment: MLN4924 1 uM, 8 h) 2.53 ± 0.63.

Regarding YPITLYLEKEREKEISDDEAEEEK [HSP90AB1], the protein stability index (treatment: DMSO) worked out at 5.01 ± 0.39 and the protein stability index (treatment: MLN4924 1 uM, 8 h) was determined as 5.3 ± 0.083.

For the sequence YPPPPPALPSSAPSGPPPPPPSVL [WASL], the protein stability index by setting is: (treatment: DMSO) 4.54 ± 0.2; (treatment: MLN4924 1 uM, 8 h) 4.5 ± 0.16.

Take YQELNYRSVEEAPVYSVPQLLSAM [SCNN1D]: the protein stability index is, setting by setting: (treatment: DMSO) 2.49 ± 0.34; (treatment: MLN4924 1 uM, 8 h) 2.69 ± 0.29.

Regarding YQLGEEAMEKFREDEGFLREEERP [KCNA3], the protein stability index (treatment: DMSO) amounted to 5.13 ± 0.2 and the protein stability index (treatment: MLN4924 1 uM, 8 h) was determined as 5.27 ± 0.24.

For YSAEQFCVSRNSHLTSVTSESEQE [CD207], the protein stability index by setting is: (treatment: DMSO) 5.23 ± 0.21; (treatment: MLN4924 1 uM, 8 h) 5.13 ± 0.32.

Take YSSGPQSWYPKANNQDFIPFTKKR [ZC2HC1C]: the protein stability index (treatment: DMSO) amounted to 3.07 ± 0.54 and the protein stability index (treatment: MLN4924 1 uM, 8 h) was found to be 3.68 ± 0.22.

YSVARQFNLTPPICEQAEYHMFQR [KCNAB2] displayed a protein stability index (treatment: DMSO) of 2.64 ± 0.23 and a protein stability index (treatment: MLN4924 1 uM, 8 h) of 2.93 ± 0.29.

With YTDNSIRPEELLQMELLLVNKLKW [CCND1], the protein stability index is 2.14 ± 0.12 (treatment: DMSO) and 2.37 ± 0.29 (treatment: MLN4924 1 uM, 8 h).

Take YTGIVLLRCRKEFYQLVWSALPFI [POP5]: the protein stability index by setting is: (treatment: DMSO) 3.12 ± 0.41; (treatment: MLN4924 1 uM, 8 h) 3.05 ± 0.47.

Sequence YWKLQIFFTNVIQALGEHLKLRQQ [CCNC] displayed a protein stability index (treatment: DMSO) of 2.66 ± 0.84 and a protein stability index (treatment: MLN4924 1 uM, 8 h) of 2.46 ± 0.38.

YYSCERAKKAMGYQPLVTMDDAME [NSDHL]: the protein stability index by setting is: (treatment: DMSO) 3.97 ± 0.34; (treatment: MLN4924 1 uM, 8 h) 3.71 ± 0.45.
